Test [1] deals with T1, hActivin RIA/ALK-2 Fc Chimera (TPP-17233) (human, UniProt Q04771 23-123).
T1 construct: also called human ALK-2-Fc
T1 sequence: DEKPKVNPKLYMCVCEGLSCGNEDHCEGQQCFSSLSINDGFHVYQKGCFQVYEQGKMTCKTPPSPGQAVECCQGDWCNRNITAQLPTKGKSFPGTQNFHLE
In words: ELISA: human ALK-2-Fc coated at 2 µg/ml, TPP-14719 titrated, detected with anti-human IgG2 (Fc specific) then anti-mouse IgG-HRP; readout Relative Fluorescence Units. The protocol: (§1) Antigens human ALK-1-Fc and human ALK-2-Fc were coated at 2 μg/ml and binding of TPP-14696 and TPP-14719 was detected by anti-human IgG2 (Fc specific) antibody (Sigma 19513) followed by anti-mouse IgG (whole molecule)—HRP (Sigma A9044, 1:40000).
(§2) In order to determine the selectivity for the ALK-1/BMPR-2 receptor complex compared to the ALK-2/BMPR-2 receptor, the specificity of the agonistic antibodies has been evaluated by ELISA (FIG. 9). The antigens human ALK-1-Fc and human ALK-2-Fc were coated at 2 μg/ml and binding of TPP-14696 and TPP-14719 was detected by anti-human IgG2 (Fc specific) antibody (Sigma 19513) followed by anti-mouse IgG (whole molecule)—HRP (Sigma A9044, 1:40000).

Test [2] concerns the target ALK-1/BMPR-2 receptor pair on PathHunter U2OS ALK-1/BMPR-2 dimerization cells (DiscoverX 93-0962C3) (UniProt P37023 22-503; Q13873 27-1038). Nature of the test: cell-based or functional assay.
Test [3] concerns the target T2, human ALK-1-Fc (TPP-11726) (human).
T2 construct: Used for panning, screening and SPR; also called hALK-1-Fc
In words: ELISA: human ALK-1-Fc coated at 2 µg/ml, TPP-14719 titrated, detected with anti-human IgG2 (Fc specific) then anti-mouse IgG-HRP; readout Relative Fluorescence Units. The protocol:
as §1, §2
On the technique in general: In an ELISA, binding on a coated surface is turned into a signal by an enzyme label.

One may read the EC50 as the concentration at which the effect is half-maximal. Lower therefore signals greater potency.

Chain of ALK-1/BMPR-2 receptor pair on PathHunter U2OS ALK-1/BMPR-2 dimerization cells (DiscoverX 93-0962C3) (P37023 22-503, chain 1 of 2): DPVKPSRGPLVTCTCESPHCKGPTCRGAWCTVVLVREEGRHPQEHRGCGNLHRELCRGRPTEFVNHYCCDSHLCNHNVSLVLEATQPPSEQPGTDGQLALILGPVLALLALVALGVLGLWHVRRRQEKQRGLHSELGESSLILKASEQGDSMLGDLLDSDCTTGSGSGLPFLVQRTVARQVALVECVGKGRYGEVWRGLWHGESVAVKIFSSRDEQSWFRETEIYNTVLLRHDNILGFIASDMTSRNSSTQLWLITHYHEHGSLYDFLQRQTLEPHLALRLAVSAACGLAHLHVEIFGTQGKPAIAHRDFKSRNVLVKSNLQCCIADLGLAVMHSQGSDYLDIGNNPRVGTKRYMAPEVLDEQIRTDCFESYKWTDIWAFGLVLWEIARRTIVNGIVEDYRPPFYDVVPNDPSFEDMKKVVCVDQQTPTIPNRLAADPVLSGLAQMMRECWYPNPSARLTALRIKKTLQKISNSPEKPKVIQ
Chain of ALK-1/BMPR-2 receptor pair on PathHunter U2OS ALK-1/BMPR-2 dimerization cells (DiscoverX 93-0962C3) (Q13873 27-1038, chain 2 of 2): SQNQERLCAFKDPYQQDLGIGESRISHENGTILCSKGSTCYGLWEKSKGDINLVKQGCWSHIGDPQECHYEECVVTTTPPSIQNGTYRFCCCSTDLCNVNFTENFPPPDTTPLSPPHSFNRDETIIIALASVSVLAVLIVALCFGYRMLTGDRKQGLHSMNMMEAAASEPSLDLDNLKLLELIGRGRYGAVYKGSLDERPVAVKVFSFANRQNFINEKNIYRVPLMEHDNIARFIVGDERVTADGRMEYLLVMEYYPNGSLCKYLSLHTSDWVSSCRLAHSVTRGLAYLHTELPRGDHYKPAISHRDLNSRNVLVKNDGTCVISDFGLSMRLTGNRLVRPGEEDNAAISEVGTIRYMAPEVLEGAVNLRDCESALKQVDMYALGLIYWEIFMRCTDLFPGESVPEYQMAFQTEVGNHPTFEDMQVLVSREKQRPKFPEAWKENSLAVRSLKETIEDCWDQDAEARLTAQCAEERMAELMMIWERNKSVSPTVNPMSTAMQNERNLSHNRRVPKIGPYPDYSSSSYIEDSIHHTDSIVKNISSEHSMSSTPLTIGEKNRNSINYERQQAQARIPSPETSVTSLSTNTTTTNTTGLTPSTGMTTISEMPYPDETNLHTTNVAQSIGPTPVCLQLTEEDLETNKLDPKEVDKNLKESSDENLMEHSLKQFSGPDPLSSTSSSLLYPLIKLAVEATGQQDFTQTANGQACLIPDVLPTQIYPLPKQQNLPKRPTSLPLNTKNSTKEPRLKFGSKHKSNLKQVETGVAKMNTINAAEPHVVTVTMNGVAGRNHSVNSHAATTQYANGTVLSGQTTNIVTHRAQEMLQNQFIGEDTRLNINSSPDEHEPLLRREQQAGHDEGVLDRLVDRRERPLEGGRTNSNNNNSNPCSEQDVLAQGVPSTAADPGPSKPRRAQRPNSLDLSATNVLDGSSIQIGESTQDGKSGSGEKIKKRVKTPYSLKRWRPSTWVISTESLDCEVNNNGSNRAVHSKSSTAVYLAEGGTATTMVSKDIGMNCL
T2 sequence (chain, as listed by the source limits assumed): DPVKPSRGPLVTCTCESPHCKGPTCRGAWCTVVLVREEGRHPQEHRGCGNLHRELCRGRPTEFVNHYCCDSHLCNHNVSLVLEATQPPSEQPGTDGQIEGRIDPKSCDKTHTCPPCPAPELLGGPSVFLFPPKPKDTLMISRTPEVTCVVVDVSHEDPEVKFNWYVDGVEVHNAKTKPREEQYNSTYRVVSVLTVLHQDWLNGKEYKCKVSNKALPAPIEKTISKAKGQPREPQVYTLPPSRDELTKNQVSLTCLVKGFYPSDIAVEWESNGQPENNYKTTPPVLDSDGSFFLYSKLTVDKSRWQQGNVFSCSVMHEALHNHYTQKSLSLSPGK

B1: TPP-14719 (13660-13469-scFv-kih-IgG2_Fc) (bispecific antibody)
chain 1: EVQLLESGGGLVQPGGSLRLSCAASGFTFSSYAMSWVRQAPGKGLEWVANINQDGSEKNYVDSMRGRFTISRDNSKNTLYLQMNSLRAEDTAVYYCAREFDYWGQGTLVTVTSSGGGGSGGGGSGGGGSQSVLAQPPSASGTPGQRVTISCSGSSSNIGSNYVYWYQQLPGTAPKLLIYGNNKRPSGVPDRFSGSKSGTSASLAISGLRSEDEADYYCAAWDDSLNGRVFGGGTKLTVLGGGGSGGGGSGGGGSGVECPPCPAPPVAGPSVFLFPPKPKDTLMISRTPEVTCVVVDVSHEDPEVQFNWYVDGVEVHNAKTKPREEQFNSTFRVVSVLTVVHQDWLNGKEYKCKVSNKGLPAPIEKTISKTKGQPREPQVYTLPPCREEMTKNQVSLWCLVKGFYPSDIAVEWESNGQPENNYKTTPPMLDSDGSFFLYSKLTVDKSRWQQGNVFSCSVMHEALHNHYTQKSLSLSPG
chain 2: EVQLLESGGGLVQPGGSLRLSCAASGFTFSDYYMTWIRQAPGKGLEWVSSISGGSTYYADSRKGRFTISRDNSENTLYLQMNSLRAEDTAVYYCARDFGVAGWFGQYGMDVWGQGTLVTVSSGGGGSGGGGSGGGGSQSVLTQPPSASGTPGQRVTISCTGSSSNIGAGYDVHWYQQLPGTAPKLLIYRSNQRPSGVPDRFSGSKSGTSASLAISGLRSEDEADYYCSSYAGNYNLVFGGGTKLTVLGGGGSGGGGSGGGGSGVECPPCPAPPVAGPSVFLFPPKPKDTLMISRTPEVTCVVVDVSHEDPEVQFNWYVDGVEVHNAKTKPREEQFNSTFRVVSVLTVVHQDWLNGKEYKCKVSNKGLPAPIEKTISKTKGQPREPQVCTLPPSREEMTKNQVSLSCAVKGFYPSDIAVEWESNGQPENNYKTTPPMLDSDGSFFLVSKLTVDKSRWQQGNVFSCSVMHEALHNHYTQKSLSLSPG
notes: scFv-Fc (kih) heterodimer with IgG2 Fc; also called BsAB TPP-14719
In the case of B1, the binding result in test [1] was “no binding”. Also, in test [2], the “Agonistic activity in PathHunter U2OS cells EC50” value stood at 6.9 nM. A half-maximal response in test [3] (EC50) required 0.747 nM.

Source of the values: patent publication US20220185901A1 (Bayer, published 2022).
